# Results as given in the nanobody polyreactivity screen of Harvey et al. (2022).
# Test: yeast display, Sf9 membrane polyspecificity reagent, FACS + sequencing; frameworks hold sequencing errors
# Summary of the method: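 Sorting gates, low and high (top ~1%), were placed on anti-HA fluorescence to track expression and on streptavidin fluorescence to track reagent binding. A clone's polyreactivity label is taken from the gate it came out of. The reagent was 10% biotinylated, detergent-solubilized Sf9 membrane, applied for 1 hour at 4 °C to galactose-induced yeast display cells.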
row,Sequence,polyreactivity (PSR sort gate)
1,QVQLHESGSGLVQAGGSLRLSCAASGAIFPANLMGWYRQAPGKERELVAGISYGSITYCADSVKGRFNISRDNAKHTVYLQMNSLKPEDTAVYYCEVWRPGGDEYYYWGQGTQVTVSS,low polyreactivity
2,QVQLLDSGGGLVQAGGSLRLSCDASGRTIDIYAMGWYRQAPGKERELVAAISSGGSTYYADSVKGRFTISRDNAKNTVYLQMNSLKPEDTAVYYCAVRWYDQVSRRGIGYYWGQGTQVTVSS,low polyreactivity
3,QVQLLEAGGGLVQAGGSLRFSCAHSGSIVSHYAIGWYRQAPGKERELVAAITGGGITYYADSVKGRFTISRDNAKNTVYLQMNSLKPEDTAVDYCDTDSLMFTIYDYWGQGTQVTVSS,low polyreactivity
4,QVQLLESAGGLVQAGGSLRLRCSASGYISCDASMGWYRHAPGKERELAASITKGSSTNYADSEKGRFTIRDNAINTVYLQMNSLKPEDTAVCYCAVTYPYWGDYTYWGHGTQVTVSS,low polyreactivity
5,QVQLLESGAGLVQAGGSLRLICAASVNTFYWYAMGRYRQAPGKERELVAAITWSGGSTHYADSVKGRFTISRDNAKNTVYLQMNSLTPEYTAVYYCAARYFRWWDMGYWGQGTQVSVSS,high polyreactivity
6,QVQLLESGCGLVQAGGSLSIRCAATGFIFIFIAMGWSRQATGTERELVAAIDTSDDSTYYADSVMGRFTISRDNAKNTVYLQMNRLKTEDTAVYYCAAEELSNYEYWGQGTQVTVSS,low polyreactivity
7,QVQLLESGGGFVQEGGSLRLICAASGLTFYYNAMGWYRQAPGTERELVAAISFSGGRTYYADSVKGRFTISRDNAQNTVYLQMNSLKPEDTAVYYCAARVPRYRKDSVWAYYYWGQGTQVTVSS,high polyreactivity
8,QVQLLESGGGLDQAGGTLRLSWAASGIIFSFYTMGWYRQAPGKERELVAAITWSGGSTYYADSVKGRFTISRDNAKNTVYLQMNSLKPDDTAVYYCIARNPGRKRSQGYSWGQGTQVTVSS,low polyreactivity
9,QVQLLESGGGLDQARGSLRLSCAASGITFEYNAMGWYRQAPGKERELVAAISLSSGSTYYADSVKGRFTISRDNAKNTVYLQMNSLKPEDTAVYYGNADTIIYEGGYWGQGTQVTVSS,low polyreactivity
10,QVQLLESGGGLVKAGGCRRLSCAASGSTLTPYTMGWYSEAPGIERELVAAMTQCGGTTYYADSVKGRFTISRDNAQNTVYVQMNSLKPEDTAVYYCAARSYGSTSPIRVQLYYWGQGTQVTVSS,high polyreactivity
11,QVQLLESGGGLVLAGGSLRLSCAASGRIFNLYAMGWYRQAPGKERELVAAITDIGSSTYYADSVKGRFTISRDNAKNTVYLQMNSLKPEDTAVYYCNAVVKSSSRGSIAHPGYDYWGQGTQVTVSS,high polyreactivity
12,QVQLLESGGGLVPSGGSLRLSCAASGLTLYTYAMGWYRQAPGKERELVAAISKNGGRTYYADSVKGRFTISRDNAKITVYLQMNSLKPEDTAVYYCADRARVGTVTFDYWGQGTQVTVSS,low polyreactivity
13,QVQLLESGGGLVPSRGSLRLSCAASGFTFAHYAMGWYRQAPGKERELVAAISGSGSSTYYADSVKGRFTISRDNAKNNVYLQMNSLKPEDTADYYCNVRWYFLYDYWGQGTQVTVSS,low polyreactivity
14,QVQLLESGGGLVQAGCSLRLSCAASGFIFSYAMGWYRQAPGKERQLVAAISKSGCRTYYADSVKGRFTISRDNAKNTVYLQMNSMKPEDTEVYYCAVRDLHLSNARYNFWGQGNQVTVSS,high polyreactivity
15,QVQLLESGGGLVQAGGCLRLRCAASVRTFEQNAMGWCRRAPGKERELVASITSVGSTDYADSVKGRFTISRDNAKNTVYLQMNSLKPEDTAGYYCAKTLGSQNYDFDYWGQGTQVTVSS,low polyreactivity
16,QVQLLESGGGLVQAGGILRLSCAASGSTFYPYAMGWSRQAPGKDRELVAAITGTGGSTYYADSVKGRFRISLDNAKNTVDLQMNSLKPEDPAVYYCATRRRYYYSGYNYWGQGTQVTVSS,high polyreactivity
17,QVQLLESGGGLVQAGGSLRESCAASGSMFSHNTMGWYRQAPGKERELVATINWRATYYADSVKGRFTISRDNAKNTVYLQMNSLKPEDTAGYYCNKDRQRYGEDYWGQGTQVTVSS,high polyreactivity
18,QVQLLESGGGLVQAGGSLRISCASSGRTFSSNTMGRYRQAPGKERELVAAISSTDSTYYADSVKGRYTISRDNAKNTVYLQMNSLKPEDTAVYYCAKRPTRRYGYWGQGTQVTVSS,high polyreactivity
19,QVQLLESGGGLVQAGGSLRLICAASGRIIYGYAMGWYRQAPGKERELVAAITATYYADSVKGRFTISRDNAKNTVYLQMKSLKPVDSGVYYCNAYLSPKQPLSTPDPSFEGGYWGQGTQVTVSS,low polyreactivity
20,QVQLLESGGGLVQAGGSLRLRCASSGSISDWNAMGWYRQAPGKERELVAAISRGGNTNYADSVKGRFTISRDNAKNTVYLQMNSLKPEDTAVYYCAAGHGSLRYNYWGQGTQVSVSS,high polyreactivity
21,QVQLLESGGGLVQAGGSLRLSCAASGFIFPGYAMGWYRQAPGKEREFVAAITSRGGSTYYADSVKGRFTISRDNAKNTVYLQMNSLKPEDTAVYYCAARNFLSRRGTYDYWGQGTQVTVSS,high polyreactivity
22,QVQLLESGGGLVQAGGSLRLSCAASGFTLTRNAMGWYRQAPGKEREFVAAISWSGGSTYADSVKGRFTISRDNAKNTVFLQMNSLKPEDTAVYYCAADRYNGRYGYWGQGTQVTVSS,high polyreactivity

row,Sequence,polyreactivity (PSR sort gate)
1,QVQLLESGGGLVQAGGSLRLSCAASGGTFYSYAMGWYRQAPGKEREFVATITRRSGSTYYADSVKGRFTISRDNAKNTVYLQMNSLKPEDNAVYYCAATKYKLLFIHFRYDYWGQGTQVTVSS,high polyreactivity
2,QVQLLESGGGLVQAGGSLRLSCAASGIIFLDNAMGWYRQAPGKERELVADITSSGGSTYYADSVKGRFTISRDNAKNTVSLQMNSLKPEDTAVYYCAATRPSYNDAESDYWGQGTQVTVSS,low polyreactivity
3,QVQLLESGGGLVQAGGSLRLSCAASGITFAKYAMGWYRQAPGKEREFVAAISTSGGSTYYADSVKGRFTISRDNAKNTVYLQMNSLKPEDTAVYYSNVETYIWYFLRYYNYWGQGTQVTVSS,high polyreactivity
4,QVQLLESGGGLVQAGGSLRLSCAASGITLYRYTMGWYRQAPGKEREFVAAISRSGGSTYYADSVKGRFTLSRDNAKNTVYFQMKSLKPDDTAVYYCAAPWYEKTTRPYGSWGQGTQVTVSS,high polyreactivity
5,QVQLLESGGGLVQAGGSLRLSCAASGLIFERYAMGWYRQAPGKERELVAAITRRGGSTYDADSVKGRFTISRDNAKNTVYFQMNSLKPEDTAVNYCAAGRPQDTEFDYWGLGTQVTVSS,high polyreactivity
6,QVQLLESGGGLVQAGGSLRLSCAASGLIFGENAMGWYRQAPGKERELVAAISRRAGITYYADSVKGRFTISRDNAKNTVYLQMNSLKPEDTAVYYCAAQYYLYRSRFDYWGQGTQVTVSS,high polyreactivity
7,QVQLLESGGGLVQAGGSLRLSCAASGLIFRGNDMGWYRPAPGKERELVAGINSSGSTNYADSVKGRFTISRDNAKNTVYLQMNSLKPEDTAVYDCAARAIVSFDYWGQGTQVTVSS,low polyreactivity
8,QVQLLESGGGLVQAGGSLRLSCAASGLIVSEYAMGWYRQAPGKERELVAAIRSDGGSTYYADSVKGRFTISRDNAKNTVYLQMNSLKPEDTAVYYCNAPYRRSAKFRRYGYDYWGQGTQVTVSS,high polyreactivity
9,QVQLLESGGGLVQAGGSLRLSCAASGLTFPLYAMGWYRQAPGKERELVAAINWSGGSTYYADSVKGRFTISRDKAKNTVYLQMNSLKPEDTAVYYCAAARSSLYYYWGQGTQVTVSS,high polyreactivity
10,QVQLLESGGGLVQAGGSLRLSCAASGLTYAYNTMGWYRQAPGKERELVADISWSGGRTYYADSVKGRFTISRDNAKNTVYLQMNSLKPEDTAVYYCAAEFWHQYGAYDYWGQGTQVTVSS,low polyreactivity
11,QVQLLESGGGLVQAGGSLRLSCAASGNTFTYYAMGWYRQAPGKERELVAAISDDGNTNYADSVMGRFTISRDNAKKTVYSQMNSLKPEDTAVYYCNADSYPSLNKRGYDYWGQGTQVTVSS,low polyreactivity
12,QVQLLESGGGLVQAGGSLRLSCAASGRIFGSNAMGWYRQAPGKERELVAAITRGGSTNYADSVKGRFTISRDNAKNTVYLQMNSLKPEDTAVYYCAAVPFGEVDYWGQGTQVTVSS,high polyreactivity
13,QVQLLESGGGLVQAGGSLRLSCAASGRIFTPYAMGWYRQAPGKERELVAVIRDGSTYYADSVKGRFTISRDNAKNTVYLQMNSLKPEDTAVYYCAADVGYSPYFFGGTRYYKYDYWGQGTQVTVSS,low polyreactivity
14,QVQLLESGGGLVQAGGSLRLSCAASGRIFVKYAMGWYRQAPGKERELVAAISKSGGSTYYADSVKGRFTISRDNAKNTVYLQMNSLKPEDTAVYYCAPRSRDQYSGSYRLDYWGQGTQVTVSS,low polyreactivity
15,QVQLLESGGGLVQAGGSLRLSCAASGRIFVVNAMGWYRQAPGKERELVATITRGASTYADSVKGRFTISRDNAKNTVYLQMNSLKPEDTAVYYCAAAKRPQVVRYDWTKLEYWGQGTQVTVSS,high polyreactivity
16,QVQLLESGGGLVQAGGSLRLSCAASGRIFVYYAMGLYRKAPGKERELVATITFGGGSTYYADSVKGRFTISRDNAKNNVYLQMNSLKQEDTAVYYCNAPGFAWYTTKYDYCGQGTQVTVSS,low polyreactivity
17,QVQLLESGGGLVQAGGSLRLSCAASGRTFRYYAMGWYRQAPGKERELVAAITANGGSTYYADSVKGRFTISRDNAKNTVYLQMNSLKPEDTAVYYCAAKYNTKLYYWGQGTQVTVSS,high polyreactivity
18,QVQLLESGGGLVQAGGSLRLSCAASGRTFYRYAMGWYRKAPGKETELVAANSSSGGSTYYADSVKGRFTISRDNAKNTVYLQMNSLKPEDTAVYYCAAQYFLFTTPYRYAPRMGYWGQGTQVTVSS,high polyreactivity
19,QVQLLESGGGLVQAGGSLRLSCAASGSIFGINAMGWYRQAPGKERELVAAISGSTSRTYYADSVKGRFTISRDNAKNTVYLQMNSLKPEDTAVYYCAVVGLRSVTRRSYYWGQGNQVTVSS,high polyreactivity
20,QVQLLESGGGLVQAGGSLRLSCAASGSIFNRYAMGWYRQAPGKERELVAAISSTGSTYYADSVKGRFTISRDNAKNTVYLQMNSLKPEDTAVYYCNAEATHDWLRVDTYEDWGQGTQVTVSS,low polyreactivity
21,QVQLLESGGGLVQAGGSLRLSCAASGSIFYRYAMGWYRQAPGKEREFVAAISGSGSSTYYADSVKGRFTISRDNAKNTVYLQMNSLKPEDTAVYYCAARWRYYGSFDYWGQGTQVTVSS,high polyreactivity
